Results reported in US20220119468A1, “AMYLOID PEPTIDE VARIANTS” (published 2022).
Where a chain is given by its changes, count along the chain named.

B1: chicken IAPP (peptide)
peptide: KCNTATCVTQRLADFLVRSSSNIGAIYSPTNVGSNTY
B2: raccoon IAPP (peptide)
peptide: KCNTATCVTQRLANFLLRSSNNLGAILSPTNVGSNTY
B3: cat IAPP (peptide)
peptide: B2 peptide with V8A, L17I
B4: seal IAPP (peptide)
peptide: B2 peptide with V8A, L17V

Molecular target: T1, human Islet Amyloid Polypeptide (human)
T1 peptide: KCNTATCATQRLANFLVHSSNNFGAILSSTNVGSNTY
Assay: cell-based or functional assay

Binder | cell viability of RIN-m cells (MTT viability assay) [% cell viability]
B1 | 76
B2 | 72
B3 | ~62
B4 | ~62
